From patent US20230116446A1 (QILU PUGET SOUND BIOTHERAPEUTICS, published 2023)

Legend:
[1] = biological target: T1, human Claudin 18 splice variant 2 (hCLDN18.2) (human, UniProt P56856-2 1-261); assay: flow cytometry on Expi293 cells stably expressing hCLDN18.2, APC anti-human IgG detection, gMFI
T1 construct: whole, on cells; Tetra-spanning membrane protein; tested only on cells
T1 sequence (looked up): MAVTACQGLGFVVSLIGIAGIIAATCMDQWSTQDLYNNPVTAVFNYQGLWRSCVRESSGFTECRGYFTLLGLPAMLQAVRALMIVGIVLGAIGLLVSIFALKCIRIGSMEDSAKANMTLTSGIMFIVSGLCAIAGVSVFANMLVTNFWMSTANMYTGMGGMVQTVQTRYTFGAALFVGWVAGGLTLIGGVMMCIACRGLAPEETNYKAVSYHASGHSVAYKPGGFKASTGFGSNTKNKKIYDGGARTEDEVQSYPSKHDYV
Protocol: Cells stably expressing hCLDN18.2 were spun down at 1500 rpm at room temperature for 5 minutes and resuspended in 1×PBS/1% BSA (washing buffer), antibodies at a 1:3 series dilution ranging from 100 nM to 24 pM were added, cells were incubated at RT with shaking for 1 hour. […] Three additional washes were performed to get rid of unbound antibodies, treated samples were run on an LSRII flow cytometer (BD Biosciences) and signal intensity was determined using the geometric MFI of APC using Flow Jo software (BD Biosciences). Curve fitting and EC₅₀ values were obtained using GraphPad Prism 6 software.

[2] = biological target: human SIRPα on monocyte-derived macrophages (human, UniProt P78324 31-504); assay: cell-based or functional assay
Sequence of human SIRPα on monocyte-derived macrophages (P78324 31-504): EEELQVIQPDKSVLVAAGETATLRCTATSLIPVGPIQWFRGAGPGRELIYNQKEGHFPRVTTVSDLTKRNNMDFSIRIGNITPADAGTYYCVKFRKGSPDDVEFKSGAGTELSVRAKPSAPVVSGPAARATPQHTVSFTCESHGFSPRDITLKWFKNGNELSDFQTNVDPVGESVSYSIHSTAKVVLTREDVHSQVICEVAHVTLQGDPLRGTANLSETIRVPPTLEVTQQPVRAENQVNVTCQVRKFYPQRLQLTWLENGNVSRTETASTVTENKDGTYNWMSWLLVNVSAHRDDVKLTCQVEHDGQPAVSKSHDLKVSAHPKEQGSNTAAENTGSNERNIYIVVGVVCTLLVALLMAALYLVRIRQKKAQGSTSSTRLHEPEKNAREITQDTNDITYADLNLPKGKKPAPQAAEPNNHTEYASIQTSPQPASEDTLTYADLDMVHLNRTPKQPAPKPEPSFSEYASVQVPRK

[3] = biological target: T1, human Claudin 18 splice variant 2 …; assay: cell-based or functional assay
[4] = biological target: T2, His6 tagged soluble monomeric extracellular domain (ECD) of hSIRPα v1 (human, UniProt P78324 31-373); assay: SPR (Biacore T200), antibody captured by anti-human Fc on CM5 chip, monomeric antigen as analyte, 1:1 model
T2 construct: extracellular domain; Made by transient transfection in Expi293 cells; used as monomeric analyte in Biacore; also called huSIRPαv1; huSIRPα-v1; not shown: His6 tag
T2 sequence (P78324 31-373): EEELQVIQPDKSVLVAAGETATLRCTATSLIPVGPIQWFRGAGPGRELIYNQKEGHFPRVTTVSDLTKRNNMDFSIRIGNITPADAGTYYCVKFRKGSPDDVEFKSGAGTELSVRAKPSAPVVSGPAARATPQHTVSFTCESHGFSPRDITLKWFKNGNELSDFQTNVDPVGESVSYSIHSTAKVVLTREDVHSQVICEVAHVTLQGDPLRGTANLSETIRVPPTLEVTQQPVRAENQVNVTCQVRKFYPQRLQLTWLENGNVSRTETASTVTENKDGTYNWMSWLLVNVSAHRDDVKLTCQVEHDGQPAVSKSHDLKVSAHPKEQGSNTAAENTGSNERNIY
Protocol: (§1) The experiment is described in Example 8. Antibodies were captured to the CM5 chip surface on which goat anti-human polyclonal antibody (Fc specific) was immobilized. Monomeric huSIRPα-v1 and huSIRPα-v2 were used as analytes and were injected for a 2-minute association period followed by a 5-minute dissociation period. Each concentration was run in duplicates. For human SIRPα v1 the incremental concentrations used are 3.13, 6.25, 12.5, 25, 50, 100, […]; For human SIRPα v2 the incremental concentrations used are 0.78, 1.56, 3.13, 6.25, 12.5, or 25 nM. At the end of each analyte injection, the chip was either regenerated with 10 mM glycine-HC1, pH 1.5 (Panels A-D) for multi-cycle kinetics or not regenerated (Panels E-H) for single-cycle kinetics. Data were evaluated using the Biacore T200 Evaluation Software, version 3.2. Data was double referenced then fit with a 1:1 binding model. Panels A and E indicate the binding of anti-hSIRPα×anti-hCLDN18.2 bispecific antibody to hSIRPα v1, panels B and F indicate the binding of anti-hSIRPα #24 IgG antibody to hSIRPα v1, panels C and G indicate the binding of anti-hSIRPα×anti-hCLDN18.2 bispecific antibody to human SIRPα v2, panels D and H indicate the binding of anti-hSIRPα #24 IgG antibody to human SIRPα v2. The x-axis represents the time (seconds), the y-axis represents the RU (Response Units).
(§2) The His6 tagged soluble monomeric extracellular domain (ECD) of hSIRPα v1 and v2 were made by transient transfection in Expi293 cells. Kinetic analysis was performed using surface plasmon resonance (T200, Cytiva) to compare the binding of the anti-hSIRPα×anti-hCLDN18.2 bispecific antibody (SEQ ID NOs:70 and 74) and the parental anti-hSIRPα #24 IgG antibody (SEQ ID NOs:68 and 74) to antigens hSIRPα v1 and hSIRPα v2 (FIG. 15). Either antibody was captured to the CM5 chip surface (Cytiva) by the immobilized goat-anti-human Fc polyclonal antibody, monomeric antigen hSIRPα v1 or v2 was sequentially injected at 6 different concentrations: huSIRPα v1 at 3.13, 6.25, 12.5, 25, 50, 100 nM while hSIPRα v2 at […] with regeneration by 10 mM Glycine-HCl pH1.5 (FIG. 15, panels A-D) for multi-cycle kinetics or without regeneration (FIG. 15, panels E-H) for single-cycle kinetics.

[5] = biological target: T3, His6 tagged soluble monomeric extracellular domain (ECD) of hSIRPα v2 (human); assay: as above
T3 construct: extracellular domain; Made by transient transfection in Expi293 cells; used as monomeric analyte in Biacore; also called huSIRPαv2; huSIRPα-v2
Protocol: as §1, §2

B1: anti-hSIRPα×anti-hCLDN18.2 bispecific antibody (bispecific antibody, human IgG1, kappa)
heavy 1: EVQLVESGGGLVKPGGSLRLSCAASGFTFSSYVMSWVRQTPGKGLEWVATISSGGTYTYYPDSVKGRFTLSRDNAKNSLYLQMNSLRAEDTAVYYCASQLTGSEFDYWGQGTTVTVSSASTKGPSVFPLAPSSKSTSGGTAALGCLVKDYFPEPVTVSWNSGALTSGVHTFPAVLQSSGLYSLSSVVTVPSSSLGTQTYICNVNHKPSNTKVDKKVEPKSCDKTHTCPPCPAPELLGGPSVFLFPPKPKDTLMISRTPEVTCVVVDVSHEDPEVKFNWYVDGVEVHNAKTKPREEQYNSTYRVVSVLTVLHQDWLNGKEYKCKVSNKALPAPIEKTISKAKGQPREPQVYTLPPCREEMTKNQVKLTCLVKGFYPSDIAVEWESNGQPENPYKTTPPVLDKDGSFFLYSKLTVDKSRWQQGNVFSCSVMHEALHNHYTQKSLSLSPGK
light 1: DIVLTQSPASLAVSLGERATISCRASESVDLYGTSFMHWYQQKPGQPPKLLIYRASNLESGVPDRFSGSGSRTDFTLTINPLQAEDVATYYCHQSSDELPWTFGGGTKVEIKRTVAAPSVFIFPPSDEQLKSGTASVVCLLNNFYPREAKVQWKVDNALQSGNSQESVTEQDSKDSTYSLSSTLTLSKADYEKHKVYACEVTHQGLSSPVTKSFNRGEC
heavy 2: QVQLVQSGAEVKKPGSSVKVSCKASGYTLTGYWIEWLRQRPGQGLEWMGEILLGSGSIKYNVKFKDRVTITADESTSTAYMELSSLRSEDTAVYYCARKGLRGNSFDYWGQGTLVTVSSASTKGPSVFPLAPSSKSTSGGTAALGCLVDDYFPEPVTVSWNSGALTSGVHTCPACLQSSGLYSLSSVVTVPSSSLGTQTYICNVNHKPSNTKVDKKVEPKSGDKTHTCPPCPAPELLGGPSVFLFPPKPKDTLMISRTPEVTCVVVDVSHEDPEVKFNWYVDGVEVHNAKTKPREEQYNSTYRVVSVLTVLHQDWLNGKEYKCKVSNKALPAPIEKTISKAKGQPREPQVCTLPPSREEMTKNQVDLTCLVDGFYPSDIAVEWESNGQPENDYGTTPPVLDDDGSFFLYSKLTVDKSRWQQGNVFSCSVMHEALHNHYTQKSLSLSPGK
light 2: DIVMTQSPSSLTVSLGEKATISCKSSQSLLNAGNQKSYLTWYQQKPGQPPKRLIYWASTRESGVPDRFSGSGSGTDFTLTISSLQAEDLAVYYCQNDYYYPFTFGQGTKVEIKRTVAAPSVFIFPPSDEQLKSGTAKVVCLLNNFYPREAKVQWKVDNALQSGNSCECVTEQDSKDSTYSLSSTLTLSKADYEKHKVYACEVTHQGLSSPVTKSFNRGES
notes: Four-chain heterodimeric IgG, one Fab arm for each target; made in ExpiCHO cells and purified on protein A; also called anti-hCLDN18.2×hSIRPα bispecific antibody; anti-hSIRPα×hCLDN18.2
[1]
  EC50: 16.9 nM
[2]
  EC50, ADCP killing of PaTu 8988s cells by monocyte-derived macrophages: 0.172 nM
[3]
  EC50, ADCP killing of PaTu 8988s cells by monocyte-derived macrophages: 0.172 nM
[4]
  Kd: 23.2 nM
  koff: 0.00732 s⁻¹
  kon: 329000 M⁻¹ s⁻¹
[5]
  Kd: 0.88 nM
  koff: 0.00104 s⁻¹
  kon: 1.18e+06 M⁻¹ s⁻¹

B2: parental anti-hCLDN18.2 59F9E1 IgG1 antibody (antibody, V domains shown)
VH: QVQLVQSGAEVKKPGSSVKVSCKASGYTLTGYWIEWLRQRPGQGLEWMGEILLGSGSIKYNVKFKDRVTITADESTSTAYMELSSLRSEDTAVYYCARKGLRGNSFDYWGQGTLVTVSS
VL: DIVMTQSPSSLTVSLGEKATISCKSSQSLLNSGNQKSYLTWYQQKPGQPPKRLIYWASTRESGVPDRFSGSGSGTDFTLTISSLQAEDLAVYYCQNDYYYPFTFGQGTKVEIKR
notes: Humanized IgG1 with two Fab arms; also called aCLDN18.2; anti-hCLDN18.2 clone 59F9E1 IgG1 (WT)
[1]
  EC50: 4.52 nM

B3: parental anti-hSIRPα #24 IgG antibody (antibody, V domains shown)
VH: EVQLVESGGGLVKPGGSLRLSCAASGFTFSSYVMSWVRQTPGKGLEWVATISSGGTYTYYPDSVKGRFTLSRDNAKNSLYLQMNSLRAEDTAVYYCASQLTGSEFDYWGQGTTVTVSS
VL: DIVLTQSPASLAVSLGERATISCRASESVDLYGTSFMHWYQQKPGQPPKLLIYRASNLESGVPDRFSGSGSRTDFTLTINPLQAEDVATYYCHQSSDELPWTFGGGTKVEIKR
notes: Bivalent parental IgG; also called anti-SIRPα mAb; anti-hSIRPα clone #24 IgG (WT)
[4]
  Kd: 22.3 nM
  koff: 0.0077 s⁻¹
  kon: 346000 M⁻¹ s⁻¹
[5]
  Kd: 0.908 nM
  koff: 0.00109 s⁻¹
  kon: 1.21e+06 M⁻¹ s⁻¹
